Data taken from patent publication US20080299140A1, “Immunogenic Composition and Peptide Sequences for Prevention and Treatment of an Hsv Condition” (priority 2002, published 2008).
pIC50: −log10 of the molar value.

Legend:
[1] = target: HLA-DR(α1*0101,α1*0301) (human); test: competition assay on purified HLA; tracer MT (2-16)
[2] = target: HLA-DR(α1*0101,α1*1501) (human); test: competition assay on purified HLA; tracer A3 (152-166)
[3] = target: HLA-DR(α1*0101,α1*0101) (human); test: competition assay on purified HLA; tracer HA (307-319)
[4] = target: HLA-DR(α1*0101,α5*0101) (human); test: as above
[5] = target: DR15=HLA-DR(α1*0101,α1*1501) (human); test: HLA class II competition binding assay, biotinylated tracer peptide
[6] = target: DR1=HLA-DR(α1*0101,α1*0101) (human); test: as above
[7] = target: DR3=HLA-DR(α1*0101,α1*0301) (human); test: as above
[8] = target: DRB5=HLA-DR(α1*0101,α5*0101) (human); test: as above
[9] = target: HLA-DR(α1*0101,α4*0101) (human); test: competition assay on purified HLA; tracer E2/E168
[10] = target: HLA-DR(α1*0101,α1*1301) (human); test: competition assay on purified HLA; tracer B1 (21-36)
[11] = target: HLA-DR(α1*0101,α1*1101) (human); test: competition assay on purified HLA; tracer HA (307-319)
[12] = target: HLA-DP(α1*0101,α1*0401) (human); test: competition assay on purified HLA; tracer bOxy 271-287
[13] = target: HLA-DR(α1*0101,α3*0101) (human); test: competition assay on purified HLA; tracer LOL (191-210)
[14] = target: DP401=HLA-DP(α1*0101,α1*0401) (human); test: HLA class II competition binding assay, biotinylated tracer peptide
[15] = target: DR11=HLA-DR(α1*0101,α1*1101) (human); test: as above
[16] = target: DR13=HLA-DR(α1*0101,α1*1301) (human); test: as above
[17] = target: DRB3=HLA-DR(α1*0101,α3*0101) (human); test: as above
[18] = target: DRB4=HLA-DR(α1*0101,α4*0101) (human); test: as above
[19] = target: HLA-DR(α1*0101,α1*0701) (human); test: competition assay on purified HLA; tracer YKL
[20] = target: HLA-DR(α1*0101,α1*0401) (human); test: competition assay on purified HLA; tracer HA (307-319)
[21] = target: DP (α1*0101, α1*0402) (human); test: competition assay on purified HLA; tracer bOxy 271-287
[22] = target: DP402=HLA-DR(α1*0101,α1*0402) (human); test: HLA class II competition binding assay, biotinylated tracer peptide
[23] = target: DR4=HLA-DR(α1*0101,α1*0401) (human); test: as above
[24] = target: DR7=HLA-DR(α1*0101,α1*0701) (human); test: as above

| Substance | pIC50 [1] | pIC50 [2] | pIC50 [3] | pIC50 [4] | pIC50 [5] | pIC50 [6] | pIC50 [7] | pIC50 [8] | pIC50 [9] | pIC50 [10] | pIC50 [11] | pIC50 [12] | pIC50 [13] | pIC50 [14] | pIC50 [15] | pIC50 [16] | pIC50 [17] | pIC50 [18] | pIC50 [19] | pIC50 [24] | also measured |
| --- | --- | --- | --- | --- | --- | --- | --- | --- | --- | --- | --- | --- | --- | --- | --- | --- | --- | --- | --- | --- | --- |
| HSV1 6 (gB243-282) (peptide) | 5.40 | 9.00 | 9.00 | 8.05 | 9.00 | 9.00 | 5.40 | 8.05 | – | – | – | – | – | – | – | – | – | – | – | – | – |
| HSV1 41 (gD96-123) (peptide) | – | 6.78 | 8.52 | – | 6.78 | 8.52 | – | – | 5.78 | 5.32 | 6.22 | 6.59 | < 4.00 | 6.57 | 6.22 | 5.32 | < 4.00 | 5.78 | – | – | – |
| HSV1 36 (gD49-82) (peptide) | 5.90 | 7.74 | 8.52 | 7.18 | 7.74 | 8.52 | 5.90 | 7.18 | – | < 4.00 | 6.92 | 6.21 | 5.30 | 6.21 | 6.92 | < 4.00 | 5.30 | – | 6.76 | 6.76 | pIC50 [20]: 7.03; pIC50 [21]: 7.01; pIC50 [22]: 7.01; pIC50 [23]: 7.03 |
| HSV1 34 (gD146-179) (peptide) | 4.99 | 7.46 | 7.40 | 7.07 | 7.46 | 7.40 | 4.99 | 7.07 | 6.13 | < 4.00 | 6.76 | 6.94 | 5.69 | 6.94 | 6.76 | < 4.00 | 5.69 | 6.13 | 6.50 | 6.50 | pIC50 [20]: 6.20; pIC50 [23]: 6.20 |
| HSV1 30 (gD0-28) (peptide) | – | 4.96 | – | 8.15 | 4.96 | – | 7.10 | 8.15 | < 4.00 | < 4.00 | 6.19 | 4.75 | 6.27 | 4.75 | 6.19 | < 4.00 | 6.27 | < 4.00 | 6.43 | 6.43 | pIC50 [21]: 5.42; pIC50 [22]: 5.42 |
| HSV1 14 (gB607-634) (peptide) | < 4.00 | – | – | – | – | – | – | – | – | – | – | – | < 4.00 | – | – | – | – | – | – | – | – |
| HSV1 9 (gB837-870) (peptide) | 4.94 | 5.61 | 6.31 | 6.25 | 5.61 | 6.31 | 4.94 | 6.25 | 4.80 | 6.44 | – | 5.10 | 4.24 | 5.10 | – | 6.44 | 4.24 | 4.80 | 6.64 | 6.64 | pIC50 [20]: 5.40; pIC50 [21]: 5.40; pIC50 [22]: 5.40; pIC50 [23]: 5.40 |
| HSV1 3 (gB111-140) (peptide) | – | 7.52 | – | – | – | – | – | – | – | 6.30 | – | 7.10 | – | 7.22 | – | – | – | – | – | – | – |
| HSV1 31 (gD22-52) (peptide) | 5.60 | – | 8.52 | – | – | 8.52 | 5.60 | – | 6.40 | < 4.00 | – | 4.21 | 5.22 | 4.21 | – | < 4.00 | 5.16 | 6.40 | – | – | pIC50 [20]: 7.20; pIC50 [21]: 4.33; pIC50 [22]: 4.31; pIC50 [23]: 7.20 |
| HSV1 7 (gB631-661) (peptide) | < 4.00 | 7.22 | – | – | 7.22 | – | < 4.00 | – | – | < 4.00 | – | – | – | – | – | < 4.00 | – | – | – | – | – |
| HSV1 4 (gB424-445) (peptide) | < 4.00 | – | 7.52 | – | – | 7.52 | < 4.00 | – | – | – | – | – | < 4.00 | – | – | – | < 4.00 | – | – | – | – |
| HSV1 32 (gD77-104) (peptide) | 5.63 | – | – | 9.00 | – | – | 5.63 | 9.00 | – | – | 6.52 | 5.84 | < 4.00 | 5.84 | 6.52 | – | < 4.00 | – | 8.40 | 8.40 | pIC50 [21]: 6.42; pIC50 [22]: 6.42 |
| HSV1 13 (gB590-612) (peptide) | – | – | – | – | – | – | – | – | – | – | – | < 4.00 | – | < 4.00 | – | – | – | – | – | – | pIC50 [21]: < 4.00; pIC50 [22]: < 4.00 |
| HSV1 1 (gB809-840) (peptide) | 6.00 | 8.52 | 8.22 | 8.22 | 8.52 | 8.22 | 6.00 | 8.22 | 7.37 | 6.55 | 7.89 | 5.79 | < 4.00 | 5.79 | 7.89 | 6.55 | < 4.00 | 7.37 | 6.53 | 6.53 | – |
| HSV1 8 (gB765-799) (peptide) | 5.32 | 8.52 | 8.70 | 8.70 | 8.52 | 8.70 | 5.32 | 8.70 | 6.63 | 6.50 | 8.40 | 6.97 | 4.26 | 6.97 | 8.40 | 6.50 | 4.26 | 6.63 | 7.70 | 7.70 | – |
| HSV1 11 (gB453-483) (peptide) | < 4.00 | – | – | – | – | – | < 4.00 | – | – | < 4.00 | – | – | < 4.00 | – | – | < 4.00 | < 4.00 | – | 7.52 | 7.52 | – |
| HSV1 12 (gB568-594) (peptide) | < 4.00 | – | – | – | – | – | < 4.00 | – | – | < 4.00 | – | – | – | – | – | < 4.00 | – | – | – | – | – |
| HSV1 38 (gD176-206) (peptide) | 5.87 | – | 7.27 | 7.04 | – | 7.27 | 5.87 | 7.04 | 5.74 | 6.70 | 8.30 | 7.04 | 4.60 | 7.04 | 8.30 | 6.70 | 4.60 | 5.74 | 7.68 | 7.68 | pIC50 [20]: 6.02; pIC50 [23]: 6.02 |
| HSV1 10 (gB80-106) (peptide) | – | – | – | – | – | – | – | – | – | – | – | – | < 4.00 | – | – | – | < 4.00 | – | – | – | – |
| HSV1 40 (gD228-257) (peptide) | 5.62 | 8.70 | 5.93 | – | 8.70 | 5.93 | 5.62 | – | 5.93 | 5.80 | 7.41 | 5.87 | < 4.00 | 5.87 | 7.41 | 5.80 | < 4.00 | 5.93 | 7.70 | 7.70 | pIC50 [20]: 5.00; pIC50 [21]: 5.14; pIC50 [22]: 5.14; pIC50 [23]: 5.00 |
| HSV1 5 (gB173-204) (peptide) | – | – | – | – | – | – | – | – | 4.05 | – | – | – | – | – | – | – | – | 4.05 | – | – | – |
| HSV1 2 (gB401-433) (peptide) | < 4.00 | 7.22 | > 9.00 | – | 7.22 | > 9.00 | < 4.00 | – | – | < 4.00 | – | – | < 4.00 | – | – | < 4.00 | < 4.00 | – | 9.00 | 9.00 | – |
